Source: US20240287172A1 (SCIRHOM, published 2024)

Experiments:
miR2-FL-WT-T7 = target: T1, miR2-FL-WT-T7 (mouse, UniProt Q80WQ6 1-827); assay: FACS, MEF-DKO cells, 3 µg/ml
T1 construct: on MEF-DKO cells
T1 sequence: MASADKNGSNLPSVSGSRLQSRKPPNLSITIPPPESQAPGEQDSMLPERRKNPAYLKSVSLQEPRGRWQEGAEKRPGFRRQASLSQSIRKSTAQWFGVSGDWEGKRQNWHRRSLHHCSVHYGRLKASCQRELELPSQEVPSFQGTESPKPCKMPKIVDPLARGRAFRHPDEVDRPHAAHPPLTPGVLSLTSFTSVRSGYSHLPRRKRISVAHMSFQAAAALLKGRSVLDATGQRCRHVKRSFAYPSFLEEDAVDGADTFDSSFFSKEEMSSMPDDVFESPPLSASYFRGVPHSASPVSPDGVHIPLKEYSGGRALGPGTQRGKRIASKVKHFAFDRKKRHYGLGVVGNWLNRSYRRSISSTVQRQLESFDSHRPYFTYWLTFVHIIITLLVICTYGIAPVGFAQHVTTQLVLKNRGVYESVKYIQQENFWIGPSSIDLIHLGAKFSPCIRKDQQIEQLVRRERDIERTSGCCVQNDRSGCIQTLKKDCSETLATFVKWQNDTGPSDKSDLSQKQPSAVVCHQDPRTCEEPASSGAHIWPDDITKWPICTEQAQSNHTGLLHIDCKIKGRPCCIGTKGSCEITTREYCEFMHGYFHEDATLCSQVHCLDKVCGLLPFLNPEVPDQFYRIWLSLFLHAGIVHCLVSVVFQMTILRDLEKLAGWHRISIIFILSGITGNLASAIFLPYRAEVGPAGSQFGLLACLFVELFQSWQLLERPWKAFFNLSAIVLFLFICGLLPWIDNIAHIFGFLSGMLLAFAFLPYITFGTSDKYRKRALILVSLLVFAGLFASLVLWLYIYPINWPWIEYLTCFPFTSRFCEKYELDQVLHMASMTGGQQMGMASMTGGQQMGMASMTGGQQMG
Excerpt: (§1) In brief, immortalized MEF-DKO-hiR2-FL-WT-T7 cells, MEF-DKO-miR2-FL-WT-T7 cells and MEF-DKO-hiR2-FL-R441K-T7, MEF-DKO-hiR2-FL-K443R-T7, MEF-DKO-hiR2-FL-V459I-T7, MEF-DKO-hiR2-FL-G481Q-T7, MEF-DKO-hiR2-FL-L488R-T7, MEF-DKO-hiR2-FL-L493I-T7, MEF-DKO-hiR2-FL-D496T-T7, MEF-DKO-hiR2-FL-H505R-T7, MEF-DKO-hiR2-FL-Q512L-T7, MEF-DKO-hiR2-FL- R513K-T7, MEF-DKO-hiR2-FL-D528N-T7, MEF-DKO-hiR2-FL-P533-T7, MEF-DKO-hiR2-FL-M534S-T7, MEF-DKO-hiR2-FL-G540S-T7, MEF-DKO-hiR2-FL-R543Q-T7, MEF-DKO-hiR2-FL-T544P-T7, MEF-DKO-hiR2-FL-G546A-T7, MEF-DKO-hiR2-FL-A547V-T7, MEF-DKO-hiR2-FL-R582Q-T7, MEF-DKO-hiR2-FL-F588L-T7, MEF-DKO-hiR2-FL-M591I-T7, MEF-DKO-hiR2-FL-E594K-T7, MEF-DKO-hiR2-FL-E626D-T7, MEF-DKO-hiR2-FL-L657I-T7, and MEF-DKO-hiR2-FL-H835Y-T7 cells were harvested with 10 mM EDTA in PBS, washed and resuspended in FACS buffer (PBS, 3% FBS, 0.05% sodium azide), and seeded in Nunc U-bottom 96-well plates (Thermo Fisher Scientific, USA) at approximately 3×10⁵ cells per well.
(§2) To pellet cells and remove supernatants, the plates were centrifuged at 1,500 rpm and 4° C. for 3 minutes. For primary staining, cells were resuspended in 100 μl per well of either FACS buffer alone (controls) or the purified antibodies 3, 5, 16, 22, 34, 42, 43, 44, 48, and 50 of the invention at 3 μg/ml FACS buffer and incubated on ice for 1 hour. Afterwards, plates were centrifuged at 1,500 rpm and 4° C. for 3 minutes and washed twice with 200 μl per well of FACS buffer. For secondary staining, cells were spun down and resuspended in 100 μl per well of PE-conjugated goat anti-mouse IgG F(ab′)2 detection fragment (Dianova, Germany) diluted 1:100 in FACS buffer. Protected from light, the cell suspensions were incubated on ice for 1 hour. Plates were then centrifuged at 1,500 rpm and 4° C. for 3 minutes and washed three times with 200 μl per well of FACS buffer. Finally, cells were resuspended in 150 μl per well of FACS buffer and analyzed using a BD Accuri™ C6 Plus flow cytometer (Becton Dickinson, Germany).

hiR2-FL-R543Q-T7 = target: T2, hiR2-FL-R543Q-T7 (human, UniProt Q6PJF5 1-856); assay: FACS, MEF-DKO cells, 3 µg/ml
T2 sequence: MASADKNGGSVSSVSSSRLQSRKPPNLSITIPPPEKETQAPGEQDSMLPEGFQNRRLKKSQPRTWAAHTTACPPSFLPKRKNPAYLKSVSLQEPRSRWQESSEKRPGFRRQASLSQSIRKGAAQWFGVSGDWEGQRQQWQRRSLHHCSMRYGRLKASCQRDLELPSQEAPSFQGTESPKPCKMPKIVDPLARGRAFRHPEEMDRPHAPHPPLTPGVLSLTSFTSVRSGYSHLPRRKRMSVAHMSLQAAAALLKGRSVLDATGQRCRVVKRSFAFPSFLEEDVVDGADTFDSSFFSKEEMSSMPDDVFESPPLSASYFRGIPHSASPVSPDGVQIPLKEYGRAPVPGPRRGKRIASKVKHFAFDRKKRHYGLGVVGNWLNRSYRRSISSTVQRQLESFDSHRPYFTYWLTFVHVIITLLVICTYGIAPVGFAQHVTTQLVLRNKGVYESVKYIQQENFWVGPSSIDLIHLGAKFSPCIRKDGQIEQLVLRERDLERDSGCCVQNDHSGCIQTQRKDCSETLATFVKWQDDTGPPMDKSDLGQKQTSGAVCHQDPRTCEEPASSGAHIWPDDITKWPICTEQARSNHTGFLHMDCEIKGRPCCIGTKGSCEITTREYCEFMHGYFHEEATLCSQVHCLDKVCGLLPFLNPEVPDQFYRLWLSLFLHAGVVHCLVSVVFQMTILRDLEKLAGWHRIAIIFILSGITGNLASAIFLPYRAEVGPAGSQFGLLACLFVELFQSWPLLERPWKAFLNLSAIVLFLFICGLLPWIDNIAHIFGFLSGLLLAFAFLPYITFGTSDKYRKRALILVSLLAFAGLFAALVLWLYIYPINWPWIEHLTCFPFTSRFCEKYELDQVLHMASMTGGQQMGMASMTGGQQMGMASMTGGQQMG
Excerpt: as §1, §2

Binder	loss of binding vs wild type (miR2-FL-WT-T7)	loss of binding vs wild type (hiR2-FL-R543Q-T7)
antibody 16 (antibody, V domains shown, mouse IgG, kappa light chain; also called clone #16; purified antibody 16) VH: QVTLKESGPGILQPSQTLSLTCSFSGFSLSTFALGVGWIRQPSGRGLEWLAHIWWDDDKYYNPALKSRLTISKDTSKNHVFLKIANVDTADTATYYCARITTYYYGMDYWGQGTSVTVSS VL: DIVLSQSPATLSVTPGDSVSLFCRASQSIGNHLHWYQQESHASPRLLIKYASQSISGIPSRFSGSGSGTDFTLSINSVETEDFGMYFCQQSYNWPLTFGAGTKLELK	≥ 95%	–
antibody 3 (antibody, V domains shown, mouse IgG, kappa light chain; also called clone #3; purified antibody 3) VH: QVTLKESGPGILQPSQTLSLTCSFSGFSLTTFAMGIGWVRQPSGKGLEWLAHIWWDGEKYNNPVLKSRLTISKDTSKNQVFLRIANVDTPDTATYYCARISSIYYIIDNWGQGTSVTVSS VL: DIVLTQSPATLSVTPGHSVSLSCRASQSISNNLHWYQKKSHESPRLLIKYVSQSISGIPSRFSGSGSGTDFTLSINSVETEDFGMYFCQQSYNWPLTFGAGTKLELK	≥ 95%	≥ 60%
antibody 34 (antibody, V domains shown, mouse IgG, kappa light chain; also called clone #34; purified antibody 34) VH: QVTLKESGPGILQPSQTLSLTCSFSGFSLSTFSLGVGWIRQSSGKGLEWLAHIWWDDEKYYNPALKSRLTISKDTSKNQVFLKIANVDAADTATYYCARAYYSKSYYALDYWGQGTSVTVSS VL: DIQMTQSPSSLSASLGERVSLTCRASQEISGYLSWLQQKPDGTIKRLIYAASTLDSGVPKRFSGSRSGSDYSLAISSLESEDFADYYCLQYANFPFTFGSGTKLEIK	≥ 95%	≥ 95%
antibody 48 (antibody, V domains shown, mouse IgG, kappa light chain; also called clone #48; purified antibody 48) VH: QVQLQQSGTELVRPGTSVKVSCKASGYAFTNYLIEWVKQRPGQGLEWIGVINPGSGFTKYNEKFKGKATLTADKSSSTVYMHLSSLTSEDSAVYFCARGLYRAMDYWGQGTSVTVSS VL: DIQMTQSPASQSASLGESVTITCLASQTIATWLAWYQQKPGKSPQLLIYGATTLADGVPSRFSGGGSGTKFSFKISSLQAEDFVSYYCQQLYSTPYTFGGGTKLEIK	≥ 60%	–
antibody 50 (antibody, V domains shown, mouse IgG, kappa light chain; also called clone #50; purified antibody 50) VH: QVQLQQSGAELVRPGASVKVSCKASGYAFSNYLIEWVKQRPGQGLEWIGVINPGSGFTKYNEKFKGKATLTADKSSSTAYMQLSSLTSEDSAVYFCARGLYRAMDYWGQGTSVTVSS VL: DIQMTQSPASQSASLGESVTITCLASQTIGTWLAWYQQKPGKSPQLLIYAAASLADGVPSRFSGGGSGTKFSFKISSLQAEDFVNYYCQQIYSTPYTFGGGTKLEIK	≥ 95%	≥ 30%
antibody 5 (antibody, V domains shown, mouse IgG, kappa light chain; also called clone #5; purified antibody 5) VH: QVTLKESGPGILQPSQTLSLTCSFSGFSLSTFGMGVGWIRQPSGKGLEWLAHIWWDDEKYYNSALKSRLTISKATSKNQAFLKIANVDTADTATYYCARISNYGSNYWYFNVWGTGTTVTVSS VL: QVVLTQSPALMSASPGEKVTMTCSAGSSVSCMYWYQQKPGSSPRVLIYDTSNLASGVPARFTGSGSGTSYSLTISRMEAEDAASYYCQQWNSYPLTFGAGTKLELK	≥ 95%	≥ 95%
antibody 43 (antibody, V domains shown, mouse IgG, kappa light chain; also called clone #43; purified antibody 43) VH: QVALKESGPGILQPSQTLSLTCSFSGFSLSTFGMGVGWIRQSSGKGLEWLANIWWDDDKYYNPALKSRLTISKDASKNQAFLKIANVDTADTATYYCARIGNYGSNYWYFDVWGTGTTVTVSS VL: QIVLTQSPAIMSASPGERVTMTCSANSRISYMYWYQQKPGSSPRLLIYDTSNLASGVPVRFSGSGSGTSYSLTISRMEAEDAATYNCQQWSSYPLTFGAGTKLELK	≥ 95%	≥ 95%
antibody 42 (antibody, V domains shown, mouse IgG, kappa light chain; also called clone #42; purified antibody 42) VH: QVTLKESGPGILQPSQTLSLTCSLSGFSLSTFGRGVGWIRQPSGKGLEWLAHIWWDDEKYYNPALKSRLTISKDTSKNQVFLRIANVDTADTATYYCARIQNYGSNYWYFDVWGTGTTVTVSS VL: LIVLTQSPAIMSASPGEKVTMTCGATSRISYMFWYQQKPGSSPRVLIYDTSNLASGVPVRFSGSGSGTSYSLTISRVEAEDVATYYCQQWNSYPLTFGAGTKLELK	≥ 95%	≥ 95%
antibody 44 (antibody, V domains shown, mouse IgG, kappa light chain; also called clone #44; purified antibody 44) VH: QVTLKESGPGILQPSQTLSLTCSFSGFSLSTFGMGVGWIRQPSEKGLEWLAHIWWDDDKYYNPALKSRLTISKDTSKNQIFLKITNVDTAETATYYCSRIGNYGSNYWYFDVWGTGTTVTVSS VL: QIVLTQSPAVMSASPGEKVTMTCTASSSVYYMYWYQQTPGSSPRLLIYDTSNLASGVPVRFSGSGSGTSYSLTISRMEAEDAATYYCQQWNTYPLTFGAGTKLELK	≥ 95%	≥ 60%
antibody 22 (antibody, V domains shown, mouse IgG, kappa light chain; also called clone #22; purified antibody 22) VH: QVTLKESGPGILQPSQTLSLTCSFSGFSLSTFGMGVGWIRQPSGKGLEWLAHIWWDDEKYYNSALKSRLTISKATSKNQVFLKIANVDTADTATYYCARISNYGSNYWYFNVWGTGTTVTVSS VL: QVVLTQSPALMSASPGEKVTMTCSAGSSVSYMYWYQQKPGSSPRVLIYDTSNLASGVPARFTGSGSGTSYSLTISRMEAEDAATYYCQQWNSYPLTFGAGTKLELK	≥ 95%	≥ 60%
